In US20230227568A1 (Pieris, published 2023):
Like-named read-outs stand apart in the source and are kept apart here.

T1: human OX40 on cells (human, UniProt P43489 29-277)
T1 construct: whole, on cells; Stably transfected CHO cells (flow cytometry) and bought Jurkat reporter cells (OX40 bioassay); also called Flp-In-CHO::huOX40; human OX40-expressing CHO cells
T1 sequence (looked up): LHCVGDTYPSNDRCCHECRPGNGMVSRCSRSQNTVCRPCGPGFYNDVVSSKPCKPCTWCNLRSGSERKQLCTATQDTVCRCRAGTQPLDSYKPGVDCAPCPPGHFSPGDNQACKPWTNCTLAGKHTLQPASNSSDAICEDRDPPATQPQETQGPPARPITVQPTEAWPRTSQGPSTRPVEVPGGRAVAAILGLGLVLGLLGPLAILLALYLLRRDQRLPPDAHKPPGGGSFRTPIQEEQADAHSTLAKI


Legend:
human OX40 on cells = molecular target: T1, human OX40 on cells; test: flow cytometry, Flp-In-CHO::huOX40 cells
Procedure: (§1) 5×10⁴ cells per well were incubated for 1 h in ice-cold PBS containing 5% fetal calf serum (PBS-FCS). A dilution series of the tested multimeric proteins (SEQ ID NOs: 38-44 and 46-55), the 4-1BB-targeting lipocalin mutein as included in the multimeric proteins (SEQ ID NO: 64) or the GPC3-targeting lipocalin SEQ ID NO: 90 were added to the cells and incubated for 1 h on ice. Cells were washed twice with PBS and then incubated with a rabbit anti-NGAL or a goat anti-human IgG labeled with fluorescent dye Alexa 488 for 30 min on ice. Human IgG4 isotype (SEQ ID NOs: 29 and 30) and lipocalin mutein SEQ ID NO: 8 were tested as a negative control. Cells were subsequently washed and analyzed using iQue Flow cytometer (Intellicyte Screener). Mean geometric fluorescent signals were plotted and fitted with Graphpad software using nonlinear regression (shared bottom, four parameters, variable slope).
(§2) Target-specific binding of hexavalent trimeric proteins to human 4-1BB-, OX40- or PD-L1-expressing cells was assessed by flow cytometry as described in Example 5, using CHO cells stably transfected with human 4-1BB, human OX40 or human PD-L1 (Flp-In system; Life Technologies).

human 4-1BB on cells [1] = molecular target: T2, human 4-1BB on cells (human, UniProt Q07011 24-255); test: flow cytometry, Flp-In-CHO::hu4-1BB cells
T2 construct: whole, on cells; Stably transfected CHO cells (flow cytometry) and bought Jurkat reporter cells (bioassay); also called Flp-In-CHO::hu4-1BB; human 4-1BB-expressing CHO cells
T2 sequence (Q07011 24-255): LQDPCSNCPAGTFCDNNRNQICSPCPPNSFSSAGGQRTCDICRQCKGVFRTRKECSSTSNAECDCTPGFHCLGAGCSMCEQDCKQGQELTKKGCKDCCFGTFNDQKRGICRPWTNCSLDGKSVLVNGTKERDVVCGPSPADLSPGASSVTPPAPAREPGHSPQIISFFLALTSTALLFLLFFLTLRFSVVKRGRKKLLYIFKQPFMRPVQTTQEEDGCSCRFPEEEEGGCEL
Procedure: as §1, §2

human 4-1BB on cells [2] = molecular target: T2, human 4-1BB on cells; test: cell-based or functional assay
human 4-1BB on cells [3] = molecular target: T2, human 4-1BB on cells; test: flow cytometry, Flp-In-CHO::hu4-1BB cells; remark: listed apart in the source
Procedure: (§3) CHO cells were stably transfected with human 4-1BB, cynomolgus 4-1BB, or a mock control using the Flp-In system (Life Technologies) according to the manufacturer's instructions. Transfected CHO cells were maintained in Ham's F12 medium (Life Technologies) supplemented with 10% Fetal Calf Serum (Biochrom) and 500 μg/ml Hygromycin B (Roth). Cells were cultured in cell culture flasks according to manufacturer's instruction (37° C., 5% CO₂ atmosphere).
as §1

[4] = molecular target: T3, cynomolgus 4-1BB on CHO cells (cynomolgus, UniProt A9YYE7 24-254); test: flow cytometry, Flp-In-CHO::cyno4-1BB cells
T3 construct: also called Flp-In-CHO::cyno4-1BB; cynomolgus 4-1BB-expressing CHO cells
T3 sequence (A9YYE7 entry or part of it limits assumed): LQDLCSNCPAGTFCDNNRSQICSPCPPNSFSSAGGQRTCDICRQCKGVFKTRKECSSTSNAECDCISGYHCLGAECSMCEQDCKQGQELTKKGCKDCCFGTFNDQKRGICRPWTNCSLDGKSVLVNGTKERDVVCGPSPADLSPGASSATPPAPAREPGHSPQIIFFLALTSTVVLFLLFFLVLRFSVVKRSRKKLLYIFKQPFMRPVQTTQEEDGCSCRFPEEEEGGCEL
Procedure: as §3, §1

[5] = molecular target: T4, recombinant hu4-1BB-His (human 4-1BB with a C-terminal polyhistidine tag, R&D Systems) (human, UniProt Q07011 24-186); test: ELISA, hu4-1BB-His coated, detection anti-NGAL-HRP
T4 construct: Bought; not shown: C-terminal polyhistidine tag
Procedure: Recombinant hu4-1BB-His (human 4-1BB with a C-terminal polyhistidine tag, R&D Systems) at the concentration of 1 μg/mL in PBS was coated overnight on microtiter plates at 4° C. After washing with PBS-0.05% T (PBS supplemented with 0.05% (v/v) Tween 20), the plates were blocked with 2% BSA (w/v) in PBS-0.1% T (PBS supplemented with 0.1% (v/v) Tween 20) for 1 h at room temperature. After washing with 100 μL PBS-0.05% T five times, exemplary multimeric proteins (SEQ ID NOs: 38-44 and 46-53) or 4-1BB-specific lipocalin mutein as included in the multimeric protein (SEQ ID NO: 64) at different concentrations, ranging from 100 to 0.002 nM, were added to the wells and incubated for 1 h at room temperature, followed by another wash step. Bound molecules under study were detected by incubation with 1:1000 diluted anti-NGAL-HRP in PBS-0.1% T-2% BSA. After an additional wash step, fluorogenic HRP substrate (QuantaBlu, Thermo) was added to each well and the fluorescence intensity was detected using a fluorescence microplate reader.
The results of exemplary experiments are depicted in FIG. 2, together with the fit curves resulting from a 1:1 binding sigmoidal fit, where the EC₅₀ value and the maximum signal were free parameters, and the slope was fixed to one. The observed EC₅₀ values toward the hu4-1BB of all tested multimeric proteins were in the sub nanomolar range.

hu4-1BB-Fc (R&D Systems) = molecular target: T5, hu4-1BB-Fc (R&D Systems) (human, UniProt Q07011 24-186); test: SPR (Biacore 8K), hu4-1BB-Fc captured by anti-human IgG Fc; apparent value, 1:1 fit
T5 construct: Bought; also called human 4-1BB; not shown: human IgG Fc of the bought fusion
Procedure: The anti-human IgG Fc antibody (GE Healthcare) was immobilized on a CM5 sensor chip using standard amine chemistry: the carboxyl groups on the chip were activated using 1-ethyl-3-(3-dimethylaminopropyl)-carbodiimide (EDC) and N-hydroxysuccinimide (NHS). Subsequently, anti-human IgG Fc antibody solution (GE Healthcare) at a concentration of 25 μg/mL in 10 mM sodium acetate (pH 5.0) was applied at a flow rate of 5 μL/min until an immobilization level of 4000-10000 resonance units (RU) was achieved. Residual non-reacted NHS-esters were blocked by passing a solution of 1 M ethanolamine across the surface. The reference channel was treated in an analogous manner. Subsequently, hu4-1BB-Fc (R&D Systems) at 0.3 μg/mL was captured by the anti-human IgG-Fc antibody at the chip surface for 180 s at a flow rate of 10 μL/min.
The binding assay was carried out with a contact time of 180 s, a dissociation time of 1200 s or 3000 s and a flow rate of 30 μL/min. All measurements were performed at 25° C. Lipocalin mutein SEQ ID NO: 64 as included in the multimeric proteins was also tested as […]. […] Prior to the protein measurements, three startup cycles were performed for conditioning purposes. Data were evaluated with Biacore Evaluation software. Double referencing was used and the 1:1 binding model was used to fit the raw data.

[6] = molecular target: T6, human GPC3 on HepG2 cells (human, UniProt P51654 25-554); test: flow cytometry, HepG2 cells
T6 construct: whole, on cells; Endogenous GPC3 of the tumor cell line; also called GPC3-positive tumor cell line HepG2; human GPC3-expressing HepG2 cells
T6 sequence (P51654 25-554 limits assumed): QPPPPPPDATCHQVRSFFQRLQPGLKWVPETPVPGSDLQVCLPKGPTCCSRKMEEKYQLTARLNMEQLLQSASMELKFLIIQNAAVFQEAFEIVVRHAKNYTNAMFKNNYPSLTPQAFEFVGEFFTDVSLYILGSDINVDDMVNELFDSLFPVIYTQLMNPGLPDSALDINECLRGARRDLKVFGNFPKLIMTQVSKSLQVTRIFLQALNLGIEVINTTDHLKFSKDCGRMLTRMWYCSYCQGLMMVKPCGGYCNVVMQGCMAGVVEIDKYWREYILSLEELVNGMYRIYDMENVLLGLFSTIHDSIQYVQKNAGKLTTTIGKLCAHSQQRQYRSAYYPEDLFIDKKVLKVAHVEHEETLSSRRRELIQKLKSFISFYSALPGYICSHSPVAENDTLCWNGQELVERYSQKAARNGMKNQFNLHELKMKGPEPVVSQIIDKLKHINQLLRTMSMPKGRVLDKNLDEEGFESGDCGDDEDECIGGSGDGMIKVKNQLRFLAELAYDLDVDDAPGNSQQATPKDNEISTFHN
Procedure: GPC3-positive tumor cell line HepG2 was cultured in Dulbecco's Modified Eagle's Medium ([…], Pan Biotech) supplemented with 10% Fetal Calf Serum (Sigma-Aldrich) and in cell culture flasks according to manufacturer's instruction (37° C., 5% CO₂ atmosphere).
as §1

Binder | EC50 (human OX40 on cells) [nM] | EC50 (human 4-1BB on cells [1]) [nM] | EC50 [nM], 4-1BB bioassay (NFκB-luc2/4-1BB Jurkat luminescence), with HepG2 cells (human 4-1BB on cells [2]) [nM] | EC50 (human 4-1BB on cells [3]) [nM] | EC50 [4] [nM] | EC50 [5] [nM] | Kd (hu4-1BB-Fc (R&D Systems)) [nM] | koff (hu4-1BB-Fc (R&D Systems)) [s⁻¹] | kon (hu4-1BB-Fc (R&D Systems)) [M⁻¹ s⁻¹] | EC50 [6] [nM]
bispecific hexavalent trimeric protein SEQ ID NO: 165 (designed binder) QDSTSDLIPAPPLSKVPLQQNFQDNQFHGKWYVVGQAGNIRLREDKDPIKMMATIYELKEDKSYDVTMVKFDDKKCMYDIWTFVPGSQPGEFTLGKIKSFPGHTSSLVRVVSTNYNQHAMVFFKFVFQNREEFYITLYGRTKELTSELKENFIRFSKSLGLPENHIVFPVPIDQCIDGGGGGSGGGGSGGGGSQDSTSDLIPAPPLSKVPLQQNFQDSQFQGKWYVVGFAGNYRLREDKDPGKMQATIYELREDKAYQVTGVLFPHKKCHDDIVIFVPGSQPGEFILGWIKSDPGITSDLVRVVSTDYNQHAMVFFKWVFQNREWFYITLYGRTKALTSELKENFIRFSKSLGLPEDHIVFPVPIDQCIDGGGGGSGGGGSGGGGSGVRLWATRQAMLGQVHEVPEGWLIFVAEQEELYVRVQNGFRKVQLEARTPLGGSGGAPEQKLISEEDLGSHHHHHHHHHH | 0.18 | 2.19 |  |  |  |  |  |  |  | 
bispecific hexavalent trimeric protein SEQ ID NO: 166 (designed binder) QDSTSDLIPAPPLSKVPLQQNFQDSQFQGKWYVVGFAGNYRLREDKDPGKMQATIYELREDKAYQVTGVLFPHKKCHDDIVIFVPGSQPGEFILGWIKSDPGITSDLVRVVSTDYNQHAMVFFKWVFQNREWFYITLYGRTKALTSELKENFIRFSKSLGLPEDHIVFPVPIDQCIDGGGGGSGGGGSGGGGSQDSTSDLIPAPPLSKVPLQQNFQDNQFHGKWYVVGQAGNIRLREDKDPIKMMATIYELKEDKSYDVTMVKFDDKKCMYDIWTFVPGSQPGEFTLGKIKSFPGHTSSLVRVVSTNYNQHAMVFFKFVFQNREEFYITLYGRTKELTSELKENFIRFSKSLGLPENHIVFPVPIDQCIDGGGGGSGGGGSGGGGSGVRLWATRQAMLGQVHEVPEGWLIFVAEQEELYVRVQNGFRKVQLEARTPLGGSGGAPEQKLISEEDLGSHHHHHHHHHH | 0.56 | 4.51 |  |  |  |  |  |  |  | 
multimeric protein SEQ ID NO: 50 (designed binder) QDSTSDLIPAPPLSKVPLQQNFQDNQFHGKWYVVGQAGNIRLREDKDPIKMMATIYELKEDKSYDVTMVKFDDKKCMYDIWTFVPGSQPGEFTLGKIKSFPGHTSSLVRVVSTNYNQHAMVFFKFVFQNREEFYITLYGRTKELTSELKENFIRFSKSLGLPENHIVFPVPIDQCIDGGGGGSGGGGSGGGGSGGGGSGGGGSGVRLWATRQAMLGQVHEVPEGWLIFVAEQEELYVRVQNGFRKVQLEARTPLGGGGSGGGGSGGGGSQDSTSDLIPAPPLSKVPLQQNFQDNQFHGKWYVVGQAGNIRLREDKDPIKMMATIYELKEDKSYDVTMVKFDDKKCMYDIWTFVPGSQPGEFTLGKIKSFPGHTSSLVRVVSTNYNQHAMVFFKFVFQNREEFYITLYGRTKELTSELKENFIRFSKSLGLPENHIVFPVPIDQCIDGGGSGGAPEQKLISEEDLGSHHHHHHHHHH |  |  | 0.92 | 2.49 | 2.62 | 0.13 | 0.17 | 1.36e-05 | 78800 | 

Next, values leading:

EC50 (human OX40 on cells) [nM] | EC50 (human 4-1BB on cells [1]) [nM] | EC50 [nM], 4-1BB bioassay (NFκB-luc2/4-1BB Jurkat luminescence), with HepG2 cells (human 4-1BB on cells [2]) [nM] | EC50 (human 4-1BB on cells [3]) [nM] | EC50 [4] [nM] | EC50 [5] [nM] | Kd (hu4-1BB-Fc (R&D Systems)) [nM] | koff (hu4-1BB-Fc (R&D Systems)) [s⁻¹] | kon (hu4-1BB-Fc (R&D Systems)) [M⁻¹ s⁻¹] | EC50 [6] [nM] | Binder
 |  | 1.83 | 4.2 | 4.55 | 0.14 | 0.13 | 9.99e-06 | 77100 |  | multimeric protein SEQ ID NO: 53 (designed binder) GVRLWATRQAMLGQVHEVPEGWLIFVAEQEELYVRVQNGFRKVQLEARTPLGGGGSGGGGSGGGGSQDSTSDLIPAPPLSKVPLQQNFQDNQFHGKWYVVGQAGNIRLREDKDPIKMMATIYELKEDKSYDVTMVKFDDKKCMYDIWTFVPGSQPGEFTLGKIKSFPGHTSSLVRVVSTNYNQHAMVFFKFVFQNREEFYITLYGRTKELTSELKENFIRFSKSLGLPENHIVFPVPIDQCIDGGGGGSGGGGSGGGGSQDSTSDLIPAPPLSKVPLQQNFQDNQFHGKWYVVGQAGNIRLREDKDPIKMMATIYELKEDKSYDVTMVKFDDKKCMYDIWTFVPGSQPGEFTLGKIKSFPGHTSSLVRVVSTNYNQHAMVFFKFVFQNREEFYITLYGRTKELTSELKENFIRFSKSLGLPENHIVFPVPIDQCIDGGGSGGAPEQKLISEEDLGSHHHHHHHHHH
 |  | 0.97 | 4.41 | 4.41 | 0.15 | 0.36 | 2.53e-05 | 71000 |  | multimeric protein SEQ ID NO: 51 (designed binder) QDSTSDLIPAPPLSKVPLQQNFQDNQFHGKWYVVGQAGNIRLREDKDPIKMMATIYELKEDKSYDVTMVKFDDKKCMYDIWTFVPGSQPGEFTLGKIKSFPGHTSSLVRVVSTNYNQHAMVFFKFVFQNREEFYITLYGRTKELTSELKENFIRFSKSLGLPENHIVFPVPIDQCIDGAEAAAKEAAAKEAAAKAGVRLWATRQAMLGQVHEVPEGWLIFVAEQEELYVRVQNGFRKVQLEARTPLGGGGSGGGGSGGGGSQDSTSDLIPAPPLSKVPLQQNFQDNQFHGKWYVVGQAGNIRLREDKDPIKMMATIYELKEDKSYDVTMVKFDDKKCMYDIWTFVPGSQPGEFTLGKIKSFPGHTSSLVRVVSTNYNQHAMVFFKFVFQNREEFYITLYGRTKELTSELKENFIRFSKSLGLPENHIVFPVPIDQCIDGGGSGGAPEQKLISEEDLGSHHHHHHHHHH
 |  |  |  |  |  |  |  |  | 1.53 | GPC3-specific lipocalin mutein SEQ ID NO: 90 (designed binder, Monomeric hNGAL mutein) QDSTSDLIPAPPLSKVPLQQNFQDNQFQGKWYVVGRAGNVGLREDKDPPKMWATIYELKEDKSYDVTNVRFARKKCTYSIGTFVPGSQPGEFTLGQIKSEPGGTANLVRVVSTNYNQHAMVFFKEVYQNREIFFIILYGRTKELTSELKENFIRFSKSLGLPENHIVFPVPIDQCIDG
